Test [1] has as its target CRL2^FEM1B complex with FEM1B^F549S, unneddylated (human, UniProt Q13617 1-745; P62877 1-108; Q15370 1-104; Q15369 17-112; Q9UK73 1-627, F549S).
Test [2] concerns the target CRL2^FEM1B complex with FEM1B^F549T, unneddylated (human, UniProt Q13617 1-745; P62877 1-108; Q15370 1-104; Q15369 17-112; Q9UK73 1-627, F549T).
Test [3] addresses CRL2^FEM1B complex with FEM1B^Δ546-553 (FEM1B^DEL), unneddylated (human, UniProt Q13617 1-745; P62877 1-108; Q15370 1-104; Q15369 17-112; Q9UK73 1-627, Δ546-553).
For test [4], the target named is CRL2^FEM1B complex with FEM1B^Y275R/L278R, unneddylated (human, UniProt Q13617 1-745; P62877 1-108; Q15370 1-104; Q15369 17-112; Q9UK73 1-627, Y275R | L278R).
The target of test [5] is CRL2^FEM1B complex with FEM1B^F549R, unneddylated (human, UniProt Q13617 1-745; P62877 1-108; Q15370 1-104; Q15369 17-112; Q9UK73 1-627, F549R).

Here are results for one molecule from PMC10943247 (2024).

One may read the koff as a measure of how fast the partners let go of each other. A low value points to slow dissociation.

B1: FNIP1/FLCN complex (complex)
chain 1: MAPTLFQKLFSKRTGLGAPGRDARDPDCGFSWPLPEFDPSQIRLIVYQDCERRGRNVLFDSSVKRRNEDISVSKLGSDAQVKVFGKCCQLKPGGDSSSSLDSSVTSSSDIKDQCLKYQGSRCSSDANMLGEMMFGSVAMSYKGSTLKIHQIRSPPQLMLSKVFTARTGSSICGSLNTLQDSLEFINQDNNTLKADNNTVINGLLGNIGLSQFCSPRRAFSEQGPLRLIRSASFFAVHSNPMDMPGRELNEDRDSGIARSASLSSLLITPFPSPNSSLTRSCASSYQRRWRRSQTTSLENGVFPRWSIEESFNLSDESCGPNPGIVRKKKIAIGVIFSLSKDEDENNKFNEFFFSHFPLFESHMNKLKSAIEQAMKMSRRSADASQRSLAYNRIVDALNEFRTTICNLYTMPRIGEPVWLTMMSGTPEKNHLCYRFMKEFTFLMENASKNQFLPALITAVLTNHLAWVPTVMPNGQPPIKIFLEKHSSQSVDMLAKTHPYNPLWAQLGDLYGAIGSPVRLARTVVVGKRQDMVQRLLYFLTYFIRCSELQETHLLENGEDEAIVMPGTVITTTLEKGEIEESEYVLVTMHRNKSSLLFKESEEIRTPNCNCKYCSHPLLGQNVENISQQEREDIQNSSKELLGISDECQMISPSDCQEENAVDVKQYRDKLRTCFDAKLETVVCTGSVPVDKCALSESGLESTEETWQSEKLLDSDSHTGKAMRSTGMVVEKKPPDKIVPASFSCEAAQTKVTFLIGDSMSPDSDTELRSQAVVDQITRHHTKPLKEERGAIDQHQETKQTTKDQSGESDTQNMVSEEPCELPCWNHSDPESMSLFDEYFNDDSIETRTIDDVPFKTSTDSKDHCCMLEFSKILCTKNNKQNNEFCKCIETVPQDSCKTCFPQQDQRDTLSILVPHGDKESSDKKIAVGTEWDIPRNESSDSALGDSESEDTGHDMTRQVSSYYGGEQEDWAEEDEIPFPGSKLIEVSAVQPNIANFGRSLLGGYCSSYVPDFVLQGIGSDERFRQCLMSDLSHAVQHPVLDEPIAEAVCIIADMDKWTVQVASSQRRVTDNKLGKEVLVSSLVSNLLHSTLQLYKHNLSPNFCVMHLEDRLQELYFKSKMLSEYLRGQMRVHVKELGVVLGIESSDLPLLAAVASTHSPYVAQILL
chain 2: MNAIVALCHFCELHGPRTLFCTEVLHAPLPQGDGNEDSPGQGEQAEEEEGGIQMNSRMRAHSPAEGASVESSSPGPKKSDMCEGCRSLAAGHPGYISHDKETSIKYVSHQHPSHPQLFSIVRQACVRSLSCEVCPGREGPIFFGDEQHGFVFSHTFFIKDSLARGFQRWYSIITIMMDRIYLINSWPFLLGKVRGIIDELQGKALKVFEAEQFGCPQRAQRMNTAFTPFLHQRNGNAARSLTSLTSDDNLWACLHTSFAWLLKACGSRLTEKLLEGAPTEDTLVQMEKLADLEEESESWDNSEAEEEEKAPVLPESTEGRELTQGPAESSSLSGCGSWQPRKLPVFKSLRHMRQVLGAPSFRMLAWHVLMGNQVIWKSRDVDLVQSAFEVLRTMLPVGCVRIIPYSSQYEEAYRCNFLGLSPHVQIPPHVLSSEFAVIVEVHAAARSTLHPVGCEDDQSLSKYEFVVTSGSPVAADRVGPTILNKIEAALTNQNLSVDVVDQCLVCLKEEWMNKVKVLFKFTKVDSRPKEDTQKLLSILGASEEDNVKLLKFWMTGLSKTYKSHLMSTVRSPTASESRN
Consider B1, for which the koff in test [1] came out at 0.00178 s⁻¹; in test [2], 0.00184 s⁻¹; in test [3] it was 0.000955 s⁻¹; in test [4] it was 0.000653 s⁻¹; in test [5], 0.00141 s⁻¹.
